For 28 molecules, IC50, DLD1 4% Abs IC50 and EC50 results are on record in US20240116985A1, “STAPLED PEPTIDES AND METHODS THEREOF” (priority 2020, published 2024).

Starred links: 1 amine or outer side, 2 acyl side, 3 side chain; linkers in the order of their positions; H or OH if unused. Positions of bridges follow the written chain, without caps; N, C: chain ends. Non-standard residues stand in square brackets, D forms with d. Primed or numbered codes have the meaning given here. PyrS2″ = (S)-3-amino-1-((pent-4-en-1-yloxy)carbonyl)pyrrolidine-3-carboxylic acid (stapling residue), C=CCCCOC(=O)N1CC[C@@](N[*:1])(C(=O)[*:2])C1; B5(5) = 2,2-bis(4-pentenyl)glycine, 2-amino-2-(pent-4-en-1-yl)hept-6-enoic acid (stitching residue), C=CCCCC(CCCC=C)(N[*:1])C(=O)[*:2]; PyrS2 = (S)-3-amino-1-((pent-4-en-1-yloxy)carbonyl)pyrrolidine-3-carboxylic acid, C=CCCCOC(=O)N1CC[C@@](N[*:1])(C(=O)[*:2])C1; B5(12) = 2-amino-2-(pent-4-en-1-yl)hept-6-enoic acid (two olefin side chains), C=CCCCC(CCCC=C)(N[*:1])C(=O)[*:2]; B5(19) = 2-amino-2-(pent-4-en-1-yl)hept-6-enoic acid (bis(4-pentenyl)glycine), C=CCCCC(CCCC=C)(N[*:1])C(=O)[*:2]; B5(3) = 2,2-bis(4-pentenyl)glycine (stitching residue), C=CCCCC(CCCC=C)(N[*:1])C(=O)[*:2]; Phe(3-COOH) = N[C@@H](Cc1cccc(C(=O)O)c1)C(=O)O; Phe(2-CF3) = N[C@@H](Cc1ccccc1C(F)(F)F)C(=O)O; Phe(2-Cl) = N[C@@H](Cc1ccccc1Cl)C(=O)O; Bta = N[C@@H](Cc1csc2ccccc12)C(=O)O; αAllylPro = C=CC[C@@]1(C(=O)O)CCCN1; tBuAla = CC(C)(C)C[C@H](N)C(=O)O; Gly(cBu) = N[C@H](C(=O)O)C1CCC1; 3Thi = N[C@@H](Cc1ccsc1)C(=O)O; S8 = C=CCCCCCC[C@](C)(N)C(=O)O; hSer = N[C@@H](CCO)C(=O)O; Nle = CCCC[C@H](N)C(=O)O; Ac5c = NC1(C(=O)O)CCCC1; Aib = CC(C)(N)C(=O)O

For experiment [1], the target named is full-length beta-Catenin (Uniprot ID P35222) (Homo sapiens (Human)) (UniProt P35222). Kind of experiment: fluorescence polarization competition against 5FAM-TCF4 (10-53) on full-length beta-catenin.
Target sequence in this assay (P35222 2-781 limits assumed): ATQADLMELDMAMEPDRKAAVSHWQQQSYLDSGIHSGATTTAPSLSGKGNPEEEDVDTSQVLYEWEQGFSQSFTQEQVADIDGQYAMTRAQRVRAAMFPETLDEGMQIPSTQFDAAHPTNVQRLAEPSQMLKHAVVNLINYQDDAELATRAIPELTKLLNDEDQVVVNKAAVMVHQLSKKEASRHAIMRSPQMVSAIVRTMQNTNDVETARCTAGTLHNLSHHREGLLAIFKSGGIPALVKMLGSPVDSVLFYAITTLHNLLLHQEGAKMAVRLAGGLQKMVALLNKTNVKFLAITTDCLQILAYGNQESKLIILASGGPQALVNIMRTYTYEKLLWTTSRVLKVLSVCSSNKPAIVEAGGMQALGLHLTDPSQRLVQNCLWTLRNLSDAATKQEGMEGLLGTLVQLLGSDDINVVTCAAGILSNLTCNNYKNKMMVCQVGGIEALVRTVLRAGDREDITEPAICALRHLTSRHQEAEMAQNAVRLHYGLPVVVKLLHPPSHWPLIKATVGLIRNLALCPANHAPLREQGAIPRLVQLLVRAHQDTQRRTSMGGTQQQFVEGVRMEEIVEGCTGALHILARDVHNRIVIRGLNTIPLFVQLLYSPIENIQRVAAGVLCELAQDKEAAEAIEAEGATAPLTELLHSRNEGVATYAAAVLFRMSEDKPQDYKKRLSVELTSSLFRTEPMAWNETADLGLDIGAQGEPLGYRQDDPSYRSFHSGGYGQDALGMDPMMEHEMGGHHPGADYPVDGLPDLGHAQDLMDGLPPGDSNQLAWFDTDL
Experiment [2] shares this target. The experiment can be described thus: cell-based or functional assay.
Target sequence in this assay (P35222 2-781 limits assumed): as above
The target of experiment [3] is Bcat-Halo (UniProt P35222). Kind of experiment: NanoBRET Abs IC50, HEK293 cells; Bcat-Halo / TCF4-Luc engagement. (Bioluminescence resonance energy transfer reports proximity on the nanometre scale.)
For experiment [4], the target named is full-length beta-Catenin (Uniprot ID P35222) (Homo sapiens (Human)) (UniProt P35222). The experiment can be described thus: fluorescence polarization competition; full-length beta-catenin, competitor 5FAM-TCF4(10-53). A general note: Polarisation of emitted light reports the rotation of a fluorescent probe.
Target sequence in this assay (P35222 2-781 limits assumed): as above
Experiment [5] concerns the target Bcat-Halo (beta-catenin HaloTag construct expressed in HEK293 cells) (UniProt P35222). Kind of experiment: NanoBRET Abs IC50 in HEK293 cells; B-cat-Halo with competitor TCF4-Luc.
For experiment [6], the target named is full-length beta-Catenin (Uniprot ID P35222) (Homo sapiens (Human)) (UniProt P35222). The experiment can be described thus: fluorescence polarization competition; full-length beta-catenin, competitor 5FAM-TCF4 10-53 probe.
Target sequence in this assay (P35222 2-781 limits assumed): as above
Experiment [7] concerns the target beta-catenin (Homo sapiens (Human)) (UniProt P35222). The experiment can be described thus: fluorescence polarization competition; full-length beta-catenin with 5FAM-TCF4(10-53) probe as competitor.
Experiment [8] concerns the target full-length beta-Catenin (Uniprot ID P35222) (Homo sapiens (Human)) (UniProt P35222). Kind of experiment: FP competition; full-length beta-catenin, competitor 5FAM-TCF4(10-53).
Target sequence in this assay (P35222 whole entry, one chain of several): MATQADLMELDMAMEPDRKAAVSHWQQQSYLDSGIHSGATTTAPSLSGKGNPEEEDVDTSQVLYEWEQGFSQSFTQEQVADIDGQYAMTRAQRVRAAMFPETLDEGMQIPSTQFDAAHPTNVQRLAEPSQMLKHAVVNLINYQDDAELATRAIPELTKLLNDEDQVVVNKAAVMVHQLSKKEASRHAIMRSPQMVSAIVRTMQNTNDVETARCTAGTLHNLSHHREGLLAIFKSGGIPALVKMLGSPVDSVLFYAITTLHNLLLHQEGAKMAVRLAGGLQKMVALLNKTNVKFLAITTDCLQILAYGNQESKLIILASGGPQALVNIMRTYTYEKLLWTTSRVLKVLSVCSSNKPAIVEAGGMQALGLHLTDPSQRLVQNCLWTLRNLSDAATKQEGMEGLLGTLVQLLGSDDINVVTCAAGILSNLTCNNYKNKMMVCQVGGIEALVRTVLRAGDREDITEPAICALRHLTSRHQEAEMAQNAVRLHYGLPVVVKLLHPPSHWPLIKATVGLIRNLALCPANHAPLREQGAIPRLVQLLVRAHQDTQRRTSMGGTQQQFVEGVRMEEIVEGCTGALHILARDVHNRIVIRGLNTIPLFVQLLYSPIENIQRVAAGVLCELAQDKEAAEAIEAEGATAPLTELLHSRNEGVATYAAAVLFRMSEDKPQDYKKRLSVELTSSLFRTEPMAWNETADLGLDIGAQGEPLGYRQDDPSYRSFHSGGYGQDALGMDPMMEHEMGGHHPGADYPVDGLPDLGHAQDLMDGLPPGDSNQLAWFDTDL

Chain of Bcat-Halo (P35222 whole entry): as the sequence (P35222 whole entry, one chain of several) above
Chain of Bcat-Halo (beta-catenin HaloTag construct expressed in HEK293 cells) (P35222 whole entry): as the sequence (P35222 whole entry, one chain of several) above
Chain of beta-catenin (Homo sapiens (Human)) (P35222 whole entry): as the sequence (P35222 whole entry, one chain of several) above

B1: I-2035 (peptide)
peptide: Ac-[αAllylPro]D[tBuAla][B5(3)]D[Phe(3-COOH)]AAFA[PyrS2″][Phe(2-Cl)][Bta]N-NH2
modifications: staple 1-4, 4-11; also: staple isomer, earlier eluting HPLC peak
Take B1: the IC50 in experiment [1] worked out at 16 nM.

B2: I-2388 (peptide)
peptide: Ac-[αAllylPro]D[tBuAla][B5(5)]D[Phe(3-COOH)]AAFL[PyrS2″][Phe(2-CF3)][Bta]QL[Gly(cBu)]-NH2
modifications: staple 1-4, 4-11
In experiment [2], B2 had a DLD1 4% Abs IC50 of 1200 nM. In addition, the IC50 came to 5700 nM in experiment [3] and 133 nM in experiment [4].

B3: I-1410 (peptide)
peptide: Ac-[αAllylPro]DL[B5(12)]DDAAFL[PyrS2″][3Thi][Bta]L-NH2
modifications: staple 1-4, 4-11
Take B3: the IC50 turned out to be 29300 nM in experiment [5] and 80 nM in experiment [6]. The EC50 in experiment [7] worked out at 80 nM.

B4: I-2392 (peptide)
peptide: Ac-[αAllylPro]D[tBuAla][B5(5)]D[Phe(3-COOH)]AAFL[PyrS2][Phe(2-CF3)][Bta]QLY-NH2
modifications: staple 1-4, 4-11
B4: the values for the IC50 in experiment [3] and in experiment [4] were 8600 nM and 462 nM, respectively.

B5: I-2390 (peptide)
peptide: Ac-[αAllylPro]D[tBuAla][B5(5)]D[Phe(3-COOH)]AAFL[PyrS2][Phe(2-CF3)][Bta]QLN-NH2
modifications: staple 1-4, 4-11
With B5, the DLD1 4% Abs IC50 in experiment [2] came to 1400 nM. For the same molecule, the IC50 in experiment [3] came to 9100 nM; in experiment [4], 22 nM.

B6: I-2041 (peptide)
peptide: Ac-[αAllylPro]D[tBuAla][B5(3)]D[Phe(3-COOH)]AAFL[PyrS2″][Phe(2-Cl)][Bta]NAA[dA]-NH2
modifications: staple 1-4, 4-11
For B6, the IC50 in experiment [1] worked out at 16 nM.

B7: I-2040 (peptide)
peptide: Ac-[αAllylPro]D[tBuAla][B5(3)]D[Phe(3-COOH)]AAFL[PyrS2″][Phe(2-Cl)][Bta]NAAA-NH2
modifications: staple 1-4, 4-11
Turning to B7, the IC50 in experiment [1] came to 24 nM.

B8: I-2044 (peptide)
peptide: Ac-[αAllylPro]D[tBuAla][B5(3)]D[Phe(3-COOH)]AAFF[PyrS2″][3Thi][Bta]N-NH2
modifications: staple 1-4, 4-11
B8: in experiment [1], the IC50 was 9 nM.

B9: I-2033 (peptide)
peptide: Ac-[αAllylPro]D[tBuAla][B5(3)]D[Phe(3-COOH)]AAFN[PyrS2″][Phe(2-Cl)][Bta]F-NH2
modifications: staple 1-4, 4-11
In experiment [1], B9 displayed an IC50 of 30 nM.

B10: I-1411 (peptide)
peptide: Ac-[αAllylPro]D[Nle][B5(12)]DDAAFL[PyrS2″][3Thi][Bta]L-NH2
modifications: staple 1-4, 4-11; also: staple isomer, earlier eluting HPLC peak
As for B10, the IC50 in experiment [5] came out at 47100 nM; in experiment [6] it was 109 nM. The molecule further returned an EC50 in experiment [7] of 109 nM.

B11: I-2045 (peptide)
peptide: Ac-[αAllylPro]D[tBuAla][B5(3)]D[Phe(3-COOH)]AAFS[PyrS2″][3Thi][Bta]N-NH2
modifications: staple 1-4, 4-11
In experiment [1], B11 displayed an IC50 of 5 nM.

B12: I-2391 (peptide)
peptide: Ac-[αAllylPro]D[tBuAla][B5(5)]D[Phe(3-COOH)]AAFL[PyrS2][Phe(2-CF3)][Bta]QL[Nle]-NH2
modifications: staple 1-4, 4-11
B12 had a DLD1 4% Abs IC50 in experiment [2] of 700 nM. For the same molecule, the IC50 in experiment [3] is 8200 nM; in experiment [4], 110 nM.

B13: I-2036 (peptide)
peptide: Ac-[αAllylPro]D[tBuAla][B5(3)]D[Phe(3-COOH)]AAFA[PyrS2″][Phe(2-Cl)][Bta]N-NH2
modifications: staple 1-4, 4-11
For B13, the IC50 in experiment [1] is 19 nM.

B14: I-2384 (peptide)
peptide: Ac-[αAllylPro]D[tBuAla][B5(5)]D[Phe(3-COOH)]AAFL[PyrS2″][Phe(2-CF3)][Bta]QLS-NH2
modifications: staple 1-4, 4-11
Molecule B14 gave a DLD1 4% Abs IC50 in experiment [2] of 1100 nM. The IC50 was 4600 nM in experiment [3] and 5 nM in experiment [4].

B15: I-2042 (peptide)
peptide: Ac-[αAllylPro]D[tBuAla][B5(3)]D[Phe(3-COOH)]AAFA[PyrS2″][3Thi][Bta]N-NH2
modifications: staple 1-4, 4-11
B15 showed an IC50 in experiment [1] of 9 nM.

B16: I-1395 (peptide)
peptide: Ac-[αAllylPro]D[tBuAla][B5(19)]DDAAF[hSer][S8][Phe(2-Cl)][Bta]Q-NH2
modifications: staple 1-4, 4-11
B16 gave an EC50 in experiment [8] of 33 nM. In addition, the IC50 in experiment [5] worked out at 15400 nM; in experiment [6], 33 nM.

B17: I-2381 (peptide)
peptide: Ac-[αAllylPro]D[tBuAla][B5(5)]D[Phe(3-COOH)]AAFL[PyrS2″][Phe(2-CF3)][Bta]QLF-NH2
modifications: staple 1-4, 4-11
Molecule B17 displayed a DLD1 4% Abs IC50 in experiment [2] of 1100 nM. In addition, the IC50 in experiment [3] came to 2100 nM; in experiment [4], 1470 nM.

B18: I-1397 (peptide)
peptide: Ac-[αAllylPro]D[tBuAla][B5(19)]DDAAF[hSer][S8][Phe(2-CF3)][Bta]Q-NH2
modifications: staple 1-4, 4-11
Turning to B18, the EC50 in experiment [8] worked out at 48 nM. Moreover, the IC50 was determined as 16400 nM in experiment [5] and 48 nM in experiment [6].

B19: I-2393 (peptide)
peptide: Ac-[αAllylPro]D[tBuAla][B5(5)]D[Phe(3-COOH)]AAFL[PyrS2][Phe(2-CF3)][Bta]QLR-NH2
modifications: staple 1-4, 4-11
Consider B19, for which the DLD1 4% Abs IC50 in experiment [2] is 5600 nM. Further, the IC50 in experiment [3] is more than 20000 nM; in experiment [4], 61 nM.

B20: I-2380 (peptide)
peptide: Ac-[αAllylPro]D[tBuAla][B5(5)]D[Phe(3-COOH)]AAFL[PyrS2″][Phe(2-CF3)][Bta]QLL-NH2
modifications: staple 1-4, 4-11
In experiment [2], B20 came in with a DLD1 4% Abs IC50 of 1500 nM. Besides, the IC50 in experiment [3] came to 2700 nM; in experiment [4], 330 nM.

B21: I-2386 (peptide)
peptide: Ac-[αAllylPro]D[tBuAla][B5(5)]D[Phe(3-COOH)]AAFL[PyrS2″][Phe(2-CF3)][Bta]QL[Aib]-NH2
modifications: staple 1-4, 4-11
Take B21: in experiment [2], the DLD1 4% Abs IC50 turned out to be 700 nM. For the same molecule, the IC50 in experiment [3] came to 2800 nM; in experiment [4], 75.5 nM.

B22: I-2383 (peptide)
peptide: Ac-[αAllylPro]D[tBuAla][B5(5)]D[Phe(3-COOH)]AAFL[PyrS2″][Phe(2-CF3)][Bta]QLT-NH2
modifications: staple 1-4, 4-11
In the case of B22, the DLD1 4% Abs IC50 in experiment [2] stood at 800 nM. Moreover, the IC50 turned out to be 4200 nM in experiment [3] and 77 nM in experiment [4].

B23: I-1412 (peptide)
peptide: Ac-[αAllylPro]D[Nle][B5(12)]DDAAFL[PyrS2″][3Thi][Bta]L-NH2
modifications: staple 1-4, 4-11
On to B23, for which the IC50 in experiment [5] is more than 20000 nM; in experiment [6] it was 79 nM. In experiment [7], this molecule returned an EC50 of 79 nM.

B24: I-2043 (peptide)
peptide: Ac-[αAllylPro]D[tBuAla][B5(3)]D[Phe(3-COOH)]AAFL[PyrS2″][3Thi][Bta]N-NH2
modifications: staple 1-4, 4-11
B24 came in with an IC50 in experiment [1] of 8 nM.

B25: I-2387 (peptide)
peptide: Ac-[αAllylPro]D[tBuAla][B5(5)]D[Phe(3-COOH)]AAFL[PyrS2″][Phe(2-CF3)][Bta]QL[Ac5c]-NH2
modifications: staple 1-4, 4-11
In turn, B25 came in with a DLD1 4% Abs IC50 in experiment [2] of 1500 nM. Also, the figures for the IC50 in experiment [3] and in experiment [4] were 7100 nM and 120 nM, respectively.

B26: I-2050 (peptide)
peptide: Ac-[αAllylPro]D[tBuAla][B5(3)]D[Phe(3-COOH)]SAFL[PyrS2″][3Thi][Bta]A-NH2
modifications: staple 1-4, 4-11
Turning to B26, in experiment [1], the IC50 stood at 9 nM.

B27: I-2037 (peptide)
peptide: Ac-[αAllylPro]D[tBuAla][B5(3)]D[Phe(3-COOH)]AAFF[PyrS2″][Phe(2-Cl)][Bta]N-NH2
modifications: staple 1-4, 4-11
Consider B27, for which the IC50 in experiment [1] is 17 nM.

B28: I-1409 (peptide)
peptide: Ac-[αAllylPro]D[tBuAla][B5(12)]DDAAFL[PyrS2″][3Thi][Bta]L-NH2
modifications: staple 1-4, 4-11
Consider B28, for which the IC50 in experiment [5] is 24000 nM; in experiment [6] it was 74 nM. The EC50 in experiment [7] amounted to 74 nM.

In general, IC50 refers to the concentration that gives 50% inhibition. A high value points to weaker potency. In general, EC50 refers to the concentration giving half of the maximal effect. High values mean a less potent agent, low ones a more potent agent.
